Experiments:
HeLa Kyoto [1] = experiment: solubility in G1/S (NP-40 vs SDS abundance) (log2 ratio); higher = more soluble; conditions: cell cycle stage: G1/S
HeLa Kyoto [2] = experiment: melting temperature (median over replicates), in situ; higher = more thermally stable
HeLa Kyoto [3] = experiment: thermal stability score vs G1/S (z-score of summed log2 fold changes over temperatures); higher = more thermally stable than in G1/S
HeLa Kyoto [4] = experiment: solubility change mitosis vs G1/S (difference of NP-40 vs SDS log2 ratios) (log2 ratio difference); higher = more soluble in mitosis
[5] = cell cycle stage: early G1 (4.5 h after nocodazole release)
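For melting temperature (median over replicates), in situ in this document: HeLa Kyoto cells synchronized by double thymidine or nocodazole block, proteins quantified by TMT10plex mass spectrometry, three independent biological replicates.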
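For solubility change mitosis vs G1/S (difference of NP-40 vs SDS log2 ratios) in this document: synchronized HeLa Kyoto cells (double thymidine block for G1/S, nocodazole release for mitosis), protein amounts in NP-40 versus SDS lysates quantified by mass spectrometry, three biological replicates.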
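For solubility in G1/S (NP-40 vs SDS abundance) in this document: HeLa Kyoto cells arrested at G1/S by double thymidine block, proteins quantified by TMT10plex mass spectrometry in mild NP-40 versus SDS extracts, three biological replicates.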
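For thermal stability score vs G1/S (z-score of summed log2 fold changes over temperatures) in this document: synchronized HeLa Kyoto cells, proteins quantified by TMT10plex mass spectrometry, three biological replicates, mitosis taken 0.5 h after nocodazole release, G1/S directly after double thymidine block.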

| Substance | solubility in G1/S (log2) (HeLa Kyoto [1]) | melting temperature (HeLa Kyoto [2]; cell cycle stage: G1/S) | melting temperature (HeLa Kyoto [2]; cell cycle stage: mitosis) | thermal stability score (HeLa Kyoto [3]; [5]) | thermal stability score (HeLa Kyoto [3]; cell cycle stage: mitosis) | solubility change mitosis (log2) (HeLa Kyoto [4]) |
| --- | --- | --- | --- | --- | --- | --- |
| MAWVLKMDEVIESGLVHDFDASLSGIGQELGAGAYSMSDVLALPIFKQEDSSLPLDGETEHPPFQYVMCAATSPAVKLHDETLTYLNQGQSYEIRMLDNRKMGDMPEINGKLVKSIIRVVFHDRRLQYTEHQQLEGWKWNRPGDRLLDLDIPMSVGIIDTRTNPSQLNAVEFLWDPAKRTSAFIQVHCISTEFTPRKHGGEKGVPFRIQVDTFKQNENGEYTDHLHSASCQIKVFKPKGADRKQKTDREKMEKRTAHEKEKYQPSYDTTILTEMRLEPIIEDAVEHEQKKSSKRTLPADYGDSLAKRGSCSPWPDAPTAYVNNSPSPAPTFTSPQQSTCSVPDSNSSSPNHQGDGASQTSGEQIQPSATIQETQQWLLKNRFSSYTRLFSNFSGADLLKLTKEDLVQICGAADGIRLYNSLKSRSVRPRLTIYVCREQPSSTVLQGQQQAASSASENGSGAPYVYHAIYLEEMIASEVARKLALVFNIPLHQINQVYRQGPTGIHILVSDQMVQNFQDESCFLFSTVKAESSDGIHIILK [UBP1] | 0.06 | 50.5 °C | 48.3 °C | -0.25 | -0.0933 | 0.0235 |
| CIT | -0.0433 | 50.1 °C | 50.4 °C | 0.287 | 0.352 | -0.113 |
| MWPGNAWRAALFWVPRGRRAQSALAQLRGILEGELEGIRGAGTWKSERVITSRQGPHIRVDGVSGGILNFCANNYLGLSSHPEVIQAGLQALEEFGAGLSSVRFICGTQSIHKNLEAKIARFHQREDAILYPSCYDANAGLFEALLTPEDAVLSDELNHASIIDGIRLCKAHKYRYRHLDMADLEAKLQEAQKHRLRLVATDGAFSMDGDIAPLQEICCLASRYGALVFMDECHATGFLGPTGRGTDELLGVMDQVTIINSTLGKALGGASGGYTTGPGPLVSLLRQRARPYLFSNSLPPAVVGCASKALDLLMGSNTIVQSMAAKTQRFRSKMEAAGFTISGASHPICPVMLGDARLASRMADDMLKRGIFVIGFSYPVVPKGKARIRVQISAVHSEEDIDRCVEAFVEVGRLHGALP [GCAT] | 0.194 | 53.3 °C | 53.3 °C | -0.218 | -1.56 | -0.0435 |
| MRHLPYFCRGQVVRGFGRGSKQLGIPTANFPEQVVDNLPADISTGIYYGWASVGSGDVHKMVVSIGWNPYYKNTKKSMETHIMHTFKEDFYGEILNVAIVGYLRPEKNFDSLESLISAIQGDIEEAKKRLELPEHLKIKEDNFFQVSKSKIMNGH [RFK] | 0.518 | 52.7 °C | 54.1 °C | 0.0986 | -0.44 | -0.114 |
| MANDSGGPGGPSPSERDRQYCELCGKMENLLRCSRCRSSFYCCKEHQRQDWKKHKLVCQGSEGALGHGVGPHQHSGPAPPAAVPPPRAGAREPRKAAARRDNASGDAAKGKVKAKPPADPAAAASPCRAAAGGQGSAVAAEAEPGKEEPPARSSLFQEKANLYPPSNTPGDALSPGGGLRPNGQTKPLPALKLALEYIVPCMNKHGICVVDDFLGKETGQQIGDEVRALHDTGKFTDGQLVSQKSDSSKDIRGDKITWIEGKEPGCETIGLLMSSMDDLIRHCNGKLGSYKINGRTKAMVACYPGNGTGYVRHVDNPNGDGRCVTCIYYLNKDWDAKVSGGILRIFPEGKAQFADIEPKFDRLLFFWSDRRNPHEVQPAYATRYAITVWYFDADERARAKVKYLTGEKGVRVELNKPSDSVGKDVF [EGLN1] | 0.331 | 49.3 °C | 50.2 °C | 2.53 | 0.714 | 0.0496 |
| MAVEDSTLQVVVRVRPPTPRELDSQRRPVVQVVDERVLVFNPEEPDGGFPGLKWGGTHDGPKKKGKDLTFVFDRVFGEAATQQDVFQHTTHSVLDSFLQGYNCSVFAYGATGAGKTHTMLGREGDPGIMYLTTVELYRRLEARQQEKHFEVLISYQEVYNEQIHDLLEPKGPLAIREDPDKGVVVQGLSFHQPASAEQLLEILTRGNRNRTQHPTDANATSSRSHAIFQIFVKQQDRVPGLTQAVQVAKMSLIDLAGSERASSTHAKGERLREGANINRSLLALINVLNALADAKGRKTHVPYRDSKLTRLLKDSLGGNCRTVMIAAISPSSLTYEDTYNTLKYADRAKEIRLSLKSNVTSLDCHISQYATICQQLQAEVAALRKKLQVYEGGGQPPPQDLPGSPKSGPPPEHQPCTPELPAGPRALQEESLGMEAQVERAMEGNSSDQEQSPEDEDEGPAEEVPTQMPEQNPTHALPESPRLTLQPKPVVGHFSARELDGDRSKQLALKVLCVAQRQYSLLQAANLLTPDMITEFETLQQLVQEEKIEPGAEALRTSGLARGAPLAQELCSESIPVPSPLCPEPPGYTGPVTRTMARRLSGPLHTLGIPPGPNCTPAQGSRWPMEKKRRRPSALEADSPMAPKRGTKRQRQSFLPCLRRGSLPDTQPSQGPSTPKGERASSPCHSPRVCPATVIKSRVPLGPSAMQNCSTPLALPTRDLNATFDLSEEPPSKPSFHECIGWDKIPQELSRLDQPFIPRAPVPLFTMKGPKPTSSLPGTSACKKKRVASSSVSHGRSRIARLPSSTLKRPAGPLVLPELPLSPLCPSNRRNGKDLIRVGRALSAGNGVTKVS [KIF18B] | -0.336 | – | 49.3 °C | 1.28 | 1.04 | 0.37 |
| MGDMKTPDFDDLLAAFDIPDIDANEAIHSGPEENEGPGGPGKPEPGVGSESEDTAAASAGDGPGVPAQASDHGLPPPDISVVSVIVKNTVCPEQSEALAGGSAGDGAQAAGVTKEGPVGPHRMQNGFGSPEPSLPGTPHSPAPPSGGTWKEKGMEGKTPLDLFAHFGPEPGDHSDPLPPSAPSPTREGALTPPPFPSSFELAQENGPGMQPPVSSPPLGALKQESCSPHHPQVLAQQGSGSSPKATDIPASASPPPVAGVPFFKQSPGHQSPLASPKVPVCQPLKEEDDDEGPVDKSSPGSPQSPSSGAEAADEDSNDSPASSSSRPLKVRIKTIKTSCGNITRTVTQVPSDPDPPAPLAEGAFLAEASLLKLSPATPTSEGPKVVSVQLGDGTRLKGTVLPVATIQNASTAMLMAASVARKAVVLPGGTATSPKMIAKNVLGLVPQALPKADGRAGLGTGGQKVNGASVVMVQPSKTATGPSTGGGTVISRTQSSLVEAFNKILNSKNLLPAYRPNLSPPAEAGLALPPTGYRCLECGDAFSLEKSLARHYDRRSMRIEVTCNHCARRLVFFNKCSLLLHAREHKDKGLVMQCSHLVMRPVALDQMVGQPDITPLLPVAVPPVSGPLALPALGKGEGAITSSAITTVAAEAPVLPLSTEPPAAPATSAYTCFRCLECKEQCRDKAGMAAHFQQLGPPAPGATSNVCPTCPMMLPNRCSFSAHQRMHKNRPPHVCPECGGNFLQANFQTHLREACLHVSRRVGYRCPSCSVVFGGVNSIKSHIQTSHCEVFHKCPICPMAFKSGPSAHAHLYSQHPSFQTQQAKLIYKCAMCDTVFTHKPLLSSHFDQHLLPQRVSVFKCPSCPLLFAQKRTMLEHLKNTHQSGRLEETAGKGAGGALLTPKTEPEELAVSQGGAAPATEESSSSSEEEEVPSSPEPPRPAKRPRRELGSKGLKGGGGGPGGWTCGLCHSWFPERDEYVAHMKKEHGKSVKKFPCRLCERSFCSAPSLRRHVRVNHEGIKRVYPCRYCTEGKRTFSSRLILEKHVQVRHGLQLGAQSPGRGTTLARGSSARAQGPGRKRRQSSDSCSEEPDSTTPPAKSPRGGPGSGGHGPLRYRSSSSTEQSLMMGLRVEDGAQQCLDCGLCFASPGSLSRHRFISHKKRRGVGKASALGLGDGEEEAPPSRSDPDGGDSPLPASGGPLTCKVCGKSCDSPLNLKTHFRTHGMAFIRARQGAVGDN [ZNF687] | -0.224 | 49 °C | 50.3 °C | 0.612 | 1.77 | 0.08 |

Source: the supplement of paper PMC5998384
